Results taken from IntAct's records for PubMed 19103756.

B1: Serine/threonine-protein kinase VRK1 (Homo sapiens), Q99986 (parent)
chain: MPRVKAAQAGRQSSAKRHLAEQFAVGEIITDMAKKEWKVGLPIGQGGFGCIYLADMNSSESVGSDAPCVVKVEPSDNGPLFTELKFYQRAAKPEQIQKWIRTRKLKYLGVPKYWGSGLHDKNGKSYRFMIMDRFGSDLQKIYEANAKRFSRKTVLQLSLRILDILEYIHEHEYVHGDIKASNLLLNYKNPDQVYLVDYGLAYRYCPEGVHKEYKEDPKRCHDGTIEFTSIDAHNGVAPSRRGDLEILGYCMIQWLTGHLPWEDNLKDPKYVRDSKIRYRENIASLMDKCFPEKNKPGEIAKYMETVKLLDYTEKPLYENLRDILLQGLKAIGSKDDGKLDLSVVENGGLKAKTITKKRKKEIEESKEPGVEDTEWSNTQTEEAIQTRSRTRKRVQK

Variants of: B1
Conditions: with plk3_human PLK3, Q9H4B4
plk3_human PLK3, Q9H4B4, sequence (Q9H4B4 whole entry, looked up): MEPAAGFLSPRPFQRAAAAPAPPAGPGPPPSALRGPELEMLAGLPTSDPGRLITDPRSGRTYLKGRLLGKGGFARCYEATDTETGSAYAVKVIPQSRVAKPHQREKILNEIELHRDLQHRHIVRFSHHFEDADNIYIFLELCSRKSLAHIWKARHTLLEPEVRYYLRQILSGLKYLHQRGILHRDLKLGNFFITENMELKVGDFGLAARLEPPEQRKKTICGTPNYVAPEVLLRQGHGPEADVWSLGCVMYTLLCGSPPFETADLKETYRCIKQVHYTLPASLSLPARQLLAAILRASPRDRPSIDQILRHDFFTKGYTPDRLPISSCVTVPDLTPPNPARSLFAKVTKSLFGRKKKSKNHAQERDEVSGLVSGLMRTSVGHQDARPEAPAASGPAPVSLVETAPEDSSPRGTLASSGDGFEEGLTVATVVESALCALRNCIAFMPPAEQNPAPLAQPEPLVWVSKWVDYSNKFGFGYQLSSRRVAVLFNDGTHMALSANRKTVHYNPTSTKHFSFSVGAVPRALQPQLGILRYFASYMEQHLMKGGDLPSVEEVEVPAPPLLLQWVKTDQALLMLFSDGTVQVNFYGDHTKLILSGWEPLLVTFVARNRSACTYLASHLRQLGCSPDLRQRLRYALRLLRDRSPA

Row | effect of a mutation on the interaction | Variant
1 | disrupting interaction | S342A
